Molecular target: GST–CDK2/His–CyclinA complex (human | bovine, UniProt P24941 1-298; P30274 1-430)
Assay: co-IP

GST–CDK2/His–CyclinA complex, sequence (P30274 whole entry, one chain of several): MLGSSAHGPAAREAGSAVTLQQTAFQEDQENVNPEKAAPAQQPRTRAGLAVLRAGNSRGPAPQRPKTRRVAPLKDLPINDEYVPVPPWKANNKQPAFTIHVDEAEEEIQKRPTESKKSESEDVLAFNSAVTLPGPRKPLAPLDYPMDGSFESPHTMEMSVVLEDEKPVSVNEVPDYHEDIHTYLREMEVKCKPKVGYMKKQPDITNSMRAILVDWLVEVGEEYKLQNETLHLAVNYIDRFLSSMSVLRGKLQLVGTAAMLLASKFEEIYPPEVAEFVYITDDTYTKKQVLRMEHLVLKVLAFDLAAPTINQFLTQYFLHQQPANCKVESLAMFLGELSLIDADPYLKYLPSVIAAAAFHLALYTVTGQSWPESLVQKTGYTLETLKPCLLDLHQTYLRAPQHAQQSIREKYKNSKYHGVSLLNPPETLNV

- fold increase of binding against non-phosphorylated GST–p57: ~4 fold
B1: GST–p57 (mouse, wild type) phosphorylated in vitro by activated p38 SAPK (natural protein)
chain: MERLASSDTFPVIARSSACRSLFGPVDHEELGRELRMRLAELNAEDQNRWDFNFQQDVPLRGPGRLQWMEVDSESVPAFYRETVQVGRCRLQLGPRPPPVAVAVIPRSGPPAGEAPDGLEEAPEQPPSAPASAVVAEPTPPATPAPASDLTSDPIPEVTLVATSDPTPDPIPDANPDVATRDGEEQVPEQVSEQGEESGAEPGDELGTEPVSEQGEEQGAEPVEEKDEEPEEEQGAEPVEEQGAEPVEEQNGEPVEEQDENQEQRGQELKDQPLSGIPGRPAPGTAAANANDFFAKRKRTAQENKASNDVPPGCPSPNVAPGVGAVEQTPRKRLR
modifications: phosphothreonine at T143 (phosphorylated in vitro by activated GST–p38 SAPK)

Source: article PMC3395087 (The EMBO Journal, 2012)
